System: MCF7-hROR1 clone 2G2
Test: FACS identification of MCF7 cell line stably transfected with human ROR1 protein
Assay type: binding
Experimental: A nucleotide sequence encoding the amino acid sequence of human ROR1 (SEQ ID NO: 105) was cloned into a pLVX lentiviral vector, and viral particles were prepared in HEK293T cells. After lentivirus infection, the MCF7 cell line (purchased from Chinese Academy of Science), was selectively cultured in a DMEM (Gibco, Cat. No. 11995073) medium containing 5 μg/mL puromycin (Gibco, Cat. No. A1113803) and 10% (w/w) fetal bovine serum (ExCell Bio, Cat. No. FND500) for 1 week. Positive cell populations with different expression levels were sorted on a flow cytometer FACS Aria III (purchased from BD Biosciences) using ROR1-Ab-1 and goat anti-mouse IgG (H+L) antibody (Jackson, Cat. No. 115605006) and cultured in 96-well plates at 37° C. with 5% (v/v) CO2. After about 2 weeks, a portion of the cells were selected for expansion, and positive cell populations with better growth, higher fluorescence intensity, and better homogeneity were selected, further expanded and cryopreserved in liquid nitrogen.

B1: ROR1-Ab-1: anti-human ROR1 monoclonal antibody, variable region sequence from patent WO2020198531A2; SEQ ID NO: 80/81 (antibody, V domains shown)
VH: QVQLQESGPGLVKPSQTLSLTCTVSGYAFTAYNIHWVRQAPGQGLEWMGSFDPYDGGSSYNQKFKDRLTISKDTSKNQVVLTMTNMDPVDTATYYCARGWYYFDYWGHGTLVTVSS
VL: DIVMTQTPLSLPVTPGEPASISCRASKSISKYLAWYQQKPGQAPRLLIYSGSTLQSGIPPRFSGSGYGTDFTLTINNIESEDAAYYFCQQHDESPYTFGEGTKVEIK
- Mean fluorescence intensity of cells: 26497

From patent US20250304717A1, “CAMPTOTHECIN DERIVATIVE AND LIGAND-DRUG CONJUGATE” (HAINAN SIMCERE ZAIMING PHARMACEUTICAL CO., LTD., priority 2022, published 2025)
